In WO2003050283A2 one finds Absorbtion (450 nm) (absorbance (450 nm)) data, which are given here for 2 molecules.

Where two headings read alike, the source gives them in different places.

In assay [1] the target is chicken lysozyme (chicken) (UniProt P00698).
Assay [2] deals with ELK (3% skim milk powder solution). As to the kind of experiment: ELISA, ELK-coated control well; ~5 ng iMab per well, urea-purified; anti-VSV-HRP. In general terms: An ELISA detects its analyte on a solid surface through an enzyme-linked reagent.
Assay [3] concerns the target chicken lysozyme (chicken) (UniProt P00698). As to the kind of experiment: ELISA, lysozyme (100 ug/ml) coated well blocked with ELK; ~50 ng iMab per well, urea-purified; anti-VSV-HRP.
Assay [4] shares this target. As to the kind of experiment: ELISA, lysozyme (100 ug/ml) coated well blocked with ELK; ~50 ng iMab per well, purified by heat (60 C) solubilisation; anti-VSV-HRP.

UniProt P00698, sequence (P00698 19-147 limits assumed): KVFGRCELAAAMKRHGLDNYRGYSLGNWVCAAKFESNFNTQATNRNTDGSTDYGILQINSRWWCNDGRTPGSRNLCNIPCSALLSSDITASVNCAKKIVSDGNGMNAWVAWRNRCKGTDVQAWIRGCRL

B1: iMab1200 (designed binder)
chain: HGLPMEKRGNFIVGQNCSLTCPASGYTIGPQCVFNCYFNSALAFSTENMGEWTLDMVFSDAGIYTMCAADSTIYASYYECGHGLSTGGYGYNPVSLGSFWDSP
Regarding B1, the Absorbtion (450 nm) (absorbance (450 nm)) was 0.061 in assay [1] and 0.04 in assay [2].

B2: iMab100 (designed binder, not shown: small tags and cut ends)
chain: NVKLVEKGGNFVENDDDLKLTCRAEGYTIGPYCMGWFRQAPNDDSTNVATINMGGGITYYGDSVKERFDIRRDNASNTVTLSMDDLQPEDSAEYNCAGDSTIYASYYECGHGLSTGGYGYDSHYRGQGTDVTVSS
For the molecule B2, the results for the Absorbtion (450 nm) (absorbance (450 nm)) in assay [3] and in assay [4] were 0.494 and 0.369, respectively.
